This note sets out measurements from doi:10.1101/2024.02.17.580827 (bioRxiv, 2024).

Sequences and labels used below:
B1: WT DHFR (purified protein) (enzyme)
chain: MISLIAALAVDRVIGMENAMPWNLPADLAWFKRNTLNKPVIMGRHTWESIGRPLPGRKNIILSSQPGTDDRVTWVKSVDEAIAACGDVPEIMVIGGGRVYEQFLPKAQKLYLTHIDAEVEGDTHFPDYEPDDWESVFSEFHDADAQNSHSYCFEILERR
B2: D144N DHFR (purified protein) (enzyme)
chain: B1 chain with D144N
B3: N23V DHFR (purified protein) (enzyme)
chain: B1 chain with N23V
B4: D132H DHFR (purified protein) (enzyme)
chain: B1 chain with D132H

Substitutions are numbered along the chain they refer to. Names and notes keep the numbering of the source.

The assay concerns the target T1, FolK (purified protein) (E. coli, UniProt P26281 1-159).
T1 sequence: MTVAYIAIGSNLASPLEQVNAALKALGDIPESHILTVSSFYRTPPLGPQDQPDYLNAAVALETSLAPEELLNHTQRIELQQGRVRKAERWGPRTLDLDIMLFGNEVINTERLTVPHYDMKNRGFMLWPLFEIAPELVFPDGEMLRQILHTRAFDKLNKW
Nature of the assay: Raman spectroscopy.
Take B1: the Kd came out at 22 µM.

Regarding B2, the Kd came to 10 µM. Against the preceding molecule, the Kd is about 2.2-fold lower.

As for B3, binding was characterised by a dissociation constant (Kd) of 5.1 µM.

Take B4: binding was put at a Kd of 8.1 µM.
